From patent US20090202993

Biological target: T1, Phi29 DNA polymerase (Bacillus phage phi29) (UniProt P03680)
T1 sequence: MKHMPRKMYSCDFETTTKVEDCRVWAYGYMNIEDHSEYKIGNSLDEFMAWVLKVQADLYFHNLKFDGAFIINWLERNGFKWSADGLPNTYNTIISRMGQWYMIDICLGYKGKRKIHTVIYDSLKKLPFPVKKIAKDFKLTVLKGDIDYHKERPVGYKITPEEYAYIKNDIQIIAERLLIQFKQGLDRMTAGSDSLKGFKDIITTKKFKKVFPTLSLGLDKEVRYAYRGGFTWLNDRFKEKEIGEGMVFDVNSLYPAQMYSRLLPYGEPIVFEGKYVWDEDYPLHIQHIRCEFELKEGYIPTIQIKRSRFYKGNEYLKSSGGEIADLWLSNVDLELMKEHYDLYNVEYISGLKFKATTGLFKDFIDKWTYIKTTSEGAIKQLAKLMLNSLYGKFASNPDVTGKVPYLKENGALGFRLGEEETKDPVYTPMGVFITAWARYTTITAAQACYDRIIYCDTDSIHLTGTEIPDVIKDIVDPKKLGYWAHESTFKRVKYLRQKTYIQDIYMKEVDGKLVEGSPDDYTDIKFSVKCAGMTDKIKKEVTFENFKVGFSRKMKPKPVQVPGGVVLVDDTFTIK
Experiment: cleavage_in_vitro
Conditions: Tango buffer, 37 C, 3 h; Mg2+, Mn2+ or Co2+ required; scale: % increase in acid-soluble product vs no enzyme

[3H]poly(A) RNA
activity: 30
